Assay [1] has as its target T1, hCTLA4-His-BAP (human).
T1 sequence (chain, biotin on the BAP-tag): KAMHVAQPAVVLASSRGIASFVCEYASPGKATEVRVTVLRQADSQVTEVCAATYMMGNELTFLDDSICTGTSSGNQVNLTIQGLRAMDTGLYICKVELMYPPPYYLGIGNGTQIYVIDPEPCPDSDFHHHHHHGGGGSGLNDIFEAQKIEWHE
In words: IgG ELISA, 2.5 ug/mL IgG, no AMP. (In general: In an ELISA, binding on a coated surface is turned into a signal by an enzyme label.)

The target of assay [2] is T1, hCTLA4-His-BAP (human). In words: IgG ELISA, absorbance with / without AMP.
The target of assay [3] is T1, hCTLA4-His-BAP (human). Nature of the assay: IgG ELISA, 2.5 ug/mL IgG, 1 mM AMP; overflow set to 5.00.
The target of assay [4] is T1, hCTLA4-His-BAP (human). Nature of the assay: IgG ELISA, 2.5 ug/mL IgG, 1 mM AMP.
The target of assay [5] is human FcγRIIb extracellular domain with C-terminal His-tag (human) (UniProt P31994). Nature of the assay: SPR (Biacore T200), FcγRIIb, amount bound per unit captured antibody. Background: In SPR one partner is held on a chip, and binding of the other changes the refractive index at the surface.
For assay [6] the target is unchanged. In words: SPR; binding amount / that of 04H1389-G1m/04L1615-k0MT.

Changes are numbered by the printed parent chain.

human FcγRIIb extracellular domain with C-terminal His-tag (human), sequence (P31994 43-217): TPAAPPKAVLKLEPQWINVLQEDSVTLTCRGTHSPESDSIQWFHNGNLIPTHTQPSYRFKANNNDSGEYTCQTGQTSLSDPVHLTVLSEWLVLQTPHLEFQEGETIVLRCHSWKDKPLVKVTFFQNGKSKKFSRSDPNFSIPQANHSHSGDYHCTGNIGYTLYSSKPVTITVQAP

B1: ABAM001 (antibody, human IgG1, V domains shown)
VH: EVQLVESGGDLVKPGGGLRLSCAASGFTFSSYTMHWVRQAPGKGLEWVSSISSRSRYKYYADSVKGRFTISRDNAKNSLYLQMNSLRAEDTAVYYCARFGIKNKRNWVLDYWGQGTLVTVSS
VL: QSALTQPPSASGSPGQTVTISCTGTSTDVGAYNYVSWYQQHPGKAPKLMIYQVSKRPSGVPDRFSGSKSGNTASLTVSGLQAEDEADYFCSLYTTRPQLAFGGGTKLTVL
In the case of B1, the figures for the 450 nm Absorbance in assay [1] and in assay [3] were 3.46 and greater than 5, respectively. This molecule gave a S/N in assay [2] greater than 1.45.

B2: ABAM002 (antibody, human IgG1, V domains shown)
VH: EVQLVESGGDLVKPGGGLRLSCAASGFTFSSYTMNWVRQAPGKGLEWVSSISSRSTYAHYADSVKGRFTISRDNAKNSLYLQMNSLRAEDTAVYYCARFGGRGHLLWVFDYWGQGTLVTVSS
VL: B1 VL with A31T, V53G, L92T, Y93V, T94S, T95G, R96D, P97F, Q98H, L99V
On to B2, for which the 450 nm Absorbance is 0.139 in assay [1] and greater than 5 in assay [3]. For the same molecule, the S/N in assay [2] was greater than 36.

B3: ABAM003 (antibody, human IgG1, V domains shown)
VH: B1 VH with S31G, K58A, Y59S, K104H, R105L, L109F
VL: QSALTQPPSASGSPGQTVTISCTGTSSDVGDYNYVSWYQQHPGKAPKLMIYGVSKRPSGVPDRFSGSKSGNTASLTVSGLQAEDEADYFCSTVSTSHSPVFGGGTKLTVL
For B3, the results for the 450 nm Absorbance in assay [1] and in assay [3] were 3.18 and greater than 5, respectively. This molecule showed a S/N in assay [2] greater than 1.57.

B4: ABAM006 (antibody, human IgG1, V domains shown)
VH: B1 VH with S31T, R56G, Y57H, K58A, Y59H, I101R, N103K, N106L, L109F
VL: B1 VL with A31F, V53N, L92T, Y93N, T94R, T95A, R96A, P97R, Q98S, L99V
With B4, the values for the 450 nm Absorbance in assay [1] and in assay [4] were 0.776 and 3, respectively. This molecule also had a S/N in assay [2] of 3.86.

B5: ABAM005 (antibody, human IgG1, V domains shown)
VH: B2 VH with S31G, T56N, A58I, H59S, F99Y, G101A, R102L, G103N, L105M
VL: B1 VL with Q52S, V53T, T94R, T95Y, R96A, P97Q, Q98G, L99V, A100V
For B5, the results for the 450 nm Absorbance in assay [1] and in assay [4] were 0.069 and 0.303, respectively. Also, the S/N in assay [2] amounted to 4.46.

B6: 04H1389-Km481/04L1615-k0MT//04H1389-Hm498/04L1615-k0MT (antibody)
heavy 1: EVQLVESGGGLVKPGGSLRLSCAASGFTFSSKTMNWVRQAPGKGLEWVSSISTQSHYIYYAESVKGRFTISRDNAKNSLYLQMNSLRAEDTAVYYCARYGKREDMLWVFDYWGQGTLVTVSSASTKGPSVFPLAPSSKSTSGGTAALGCLVKDYFPEPVTVSWNSGALTSGVHTFPAVLQSSGLYSLSSVVTVPSSSLGTQTYICNVNHKPSNTKVDKRVEPKSCDKTHTCPPCPAPEFQWGPMVFLFPPKPKDVLMISRTPEVTCVVVDVSDEEPEVKFNWYVDGVEVHNAKTKPREEQYNATYRVVSVLPVLHQDWLNGKEYKCKVSNDALPAPEEKTISKAKGQPREPQVCTLPPSREEMTKNQVSLWCLVKGFYPSDIAVEWESNGQPENNYKTTPPVLDSDGSFFLYSKLTVDKSRWQQGNVFSCSVMHEALHAHTTRKELSLSP
heavy 2: EVQLVESGGGLVKPGGSLRLSCAASGFTFSSKTMNWVRQAPGKGLEWVSSISTQSHYIYYAESVKGRFTISRDNAKNSLYLQMNSLRAEDTAVYYCARYGKREDMLWVFDYWGQGTLVTVSSASTKGPSVFPLAPSSKSTSGGTAALGCLVKDYFPEPVTVSWNSGALTSGVHTFPAVLQSSGLYSLSSVVTVPSSSLGTQTYICNVNHKPSNTKVDKRVEPKSCDKTHTCPPCPAPELLAGPSVFLFPPKPKDVLMISRTPEVTCVVVDVSHEEPEVKFNWYVDGVEVHNAKTKPREEQYNATYRVVSVLPVLHQDWLNGKEYKCKVSNDALPAPEEETISKAKGQPREPQVYTLPPSRCEMTKNQVSLSCAVKGFYPSDIAVEWESNGQPENNYKTTPPVLDSDGSFFLVSKLTVDKSRWQQGNVFSCSVMHEALHAHTTRKELSLSP
light: DIVMTQSPLSLPVTPGEPASISCQGPSTGVGDYNYVHWYQQKPGQAPRLLIYFTSKKPSGVPDRFSGSGSGTDFTLKISRVEAEDVGVYYCQTYAAPLGPMFGQGTKLEIKRTVAAPSVFIFPPSDEQLKSGTASVVCLLNNFYPREAKVQWKVDNALQSGNSQESVTEQDSKDSTYSLSSTLTLSKADYEKHKVYACEVTHQGLSSPVTKSFNRGEC
Take B6: the Binding amount in assay [5] was 0.021. Further, the Relative binding amount in assay [6] turned out to be 1.9.

The values are drawn from EP4361176A1.
